Results on two molecules are retold here after article PMC6422423, “Constitutively active BRS3 is a genuinely orphan GPCR in placental mammals” (PLoS Biology, 2019).

Common to all, as to settings: one partner purified
In test [1] the target is T1, human bombesin receptor subtype-3 (human, UniProt P32247 1-399).
T1 construct: bombesin receptor subtype-3 of human (Homo sapiens); also called hBRS3; human BRS3; source: HEK293, transiently transfected, on cells
T1 sequence (looked up): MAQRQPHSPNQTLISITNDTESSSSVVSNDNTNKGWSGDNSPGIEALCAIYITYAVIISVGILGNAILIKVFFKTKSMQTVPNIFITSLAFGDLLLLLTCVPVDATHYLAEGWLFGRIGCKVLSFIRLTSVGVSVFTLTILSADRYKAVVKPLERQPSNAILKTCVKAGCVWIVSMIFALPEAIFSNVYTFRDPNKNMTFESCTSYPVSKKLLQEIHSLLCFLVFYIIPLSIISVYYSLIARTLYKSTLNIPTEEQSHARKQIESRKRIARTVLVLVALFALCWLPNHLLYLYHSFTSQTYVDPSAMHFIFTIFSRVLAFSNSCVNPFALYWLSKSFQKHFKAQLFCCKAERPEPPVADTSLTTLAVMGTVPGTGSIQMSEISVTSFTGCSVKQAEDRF
The experiment in a line: radioligand binding; displacement of 50 pM [125I]-Tyr-NMB by unlabeled peptide on disaggregated transfected HEK293 cells; 1 h at 21°C; 24.5 mM HEPES pH 7.4, 98 mM NaCl; bound tracer separated by centrifugation.

For test [2], the target named is T2, mouse bombesin receptor subtype-3 (mouse, UniProt O54798 1-399).
T2 construct: bombesin receptor subtype-3 of mouse (Mus musculus); also called mBRS3; mouse BRS3; source: HEK293, transiently transfected, on cells
T2 sequence (looked up): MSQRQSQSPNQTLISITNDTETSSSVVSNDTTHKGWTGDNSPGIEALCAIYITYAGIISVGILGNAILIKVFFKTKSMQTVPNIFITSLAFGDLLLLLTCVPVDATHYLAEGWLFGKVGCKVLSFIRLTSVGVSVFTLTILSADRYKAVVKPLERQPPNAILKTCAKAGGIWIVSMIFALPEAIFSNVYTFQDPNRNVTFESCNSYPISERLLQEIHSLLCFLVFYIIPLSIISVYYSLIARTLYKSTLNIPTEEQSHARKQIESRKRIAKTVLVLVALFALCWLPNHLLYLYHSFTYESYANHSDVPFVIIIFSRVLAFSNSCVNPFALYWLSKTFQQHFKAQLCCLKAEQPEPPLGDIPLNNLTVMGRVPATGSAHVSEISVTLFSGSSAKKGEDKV
The description is as above.

Test [3] addresses T1, human bombesin receptor subtype-3. The experiment in a line: radioligand binding; displacement of 50 pM [125I]-Tyr42-GRP by unlabeled peptide on disaggregated transfected HEK293 cells; 1 h at 21°C; 24.5 mM HEPES pH 7.4, 98 mM NaCl; bound tracer separated by centrifugation.
For test [4], the target named is T2, mouse bombesin receptor subtype-3. Described as above.

Where no end group is shown, it is not given here.

B1: neuromedin B, unlabeled ligand peptide of the radioligand binding assays (peptide)
peptide: YKIKVNPRGNLWATGHFM
modifications: ends and bridges not checked
notes: The N-terminal Tyr may have been added for iodination (surmise); No C-terminal amide is printed for this peptide; also called NMB; source: synthetic peptide (Anhui Guoping Pharmaceutical)
One may read the Ki as a dissociation constant, usually derived from enzyme kinetics or from competition with a known ligand. A higher Ki goes with weaker binding. In the case of B1, the inhibition constant (Ki) in test [1] and in test [2] was greater than 1000 nM in each case.

B2: gastrin-releasing peptide, unlabeled ligand peptide of the radioligand binding assays (peptide)
peptide: APLQPGGSPALTKIYPRGSHWAVGHLM
modifications: ends and bridges not checked
notes: gastrin-releasing peptide, 27 residues; No C-terminal amide is printed for this peptide; also called GRP; source: synthetic peptide (Anhui Guoping Pharmaceutical)
As for B2, the Ki in test [3] and in test [4] was greater than 1000 nM throughout.
